# Test results taken from paper PMC10722498, “Fixing Flavins: Hijacking a Flavin Transferase for Equipping Flavoproteins with a Covalent Flavin Cofactor” (Journal of the American Chemical Society, 2023).
# Numbering of substitutions follows the chain as printed. Numbers in names are those of the source.
# T1: PpSB1-LOV (Pseudomonas putida, UniProt Q88E39)
# T1 construct: gene PP_4629; dimer
# T1 sequence (Q88E39 1-142): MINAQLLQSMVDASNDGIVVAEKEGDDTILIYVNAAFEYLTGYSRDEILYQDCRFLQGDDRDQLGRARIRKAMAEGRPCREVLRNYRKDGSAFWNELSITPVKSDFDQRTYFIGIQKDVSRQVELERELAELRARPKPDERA
# B1: BtNR (Bacillus tequilensis) (protein)
# chain: MADIKKQILDAYNFRHATKEFDPNKKVSDSDFEFILETGRLSPSSLGLEPWKFVVVQNPEFREKLREYTWGAQKQLPTASHFVLILARTAKDIKYNADYIKRHLKEVKQMPQDVSEGYISKTEEFQKNDLHLLESDRTLFDWASKQTYIALGNMMTAAAQIGVDSCPIEGFQYDHIHRILEEEGLLENGSFDISVMAAFGYRVRDPRPKTRSAVEDVVKWV
# notes: recombinant, coexpressed with ApbE, purified
# B2: BtNR (Bacillus tequilensis; A11D/A17T/F14S/H16A/N13L/R15G/Y12G) (protein)
# chain: B1 chain with A11D, Y12G, N13L, F14S, R15G, H16A, A17T
# notes: as for B1
# Key:
# miniSOG [1] = molecular target: T2, miniSOG (Arabidopsis thaliana, UniProt P93025, I387M/N390S/S394T/S409G/C426G/F470L, form not given); experiment: SDS-PAGE and MS; assay type: binding; conditions: covalent; attached in vivo by ApbE
# T2 construct: gene PHOT2; engineered LOV domain of phototropin 2, 106 residues, several mutations abolishing flavin-cysteine adduct; recombinant, coexpressed with ApbE
# PpSB1-LOV = molecular target: T1, PpSB1-LOV; experiment: absorbance of purified holoprotein; SDS-PAGE fluorescence; ESI-MS; assay type: binding; conditions: dissociable, noncovalent FMN
# miniSOG [2] = molecular target: T3, miniSOG (Arabidopsis thaliana, UniProt P93025, I387M/N390S/S394T/S409G/C426G/A437D/T438I/Q440S/K441G/I442A/R443T/F470L); experiment: X-ray crystal structure […] Å; MS; assay type: binding; conditions: miniSOG-F2; covalent; phosphoester to OG1 of Thr57; attached in vivo by ApbE
# T3 construct: gene PHOT2; engineered LOV domain of phototropin 2, 106 residues, several mutations abolishing flavin-cysteine adduct; recombinant, coexpressed with ApbE
# steady-state kinetics = substrate: NC(=O)N/N=C/c1ccc([N+](=O)[O-])o1; experiment: steady-state kinetics; assay type: biochemical, Bacillus tequilensis
# Excerpt: steady-state kinetics on BtNR
# [3] = BtNR-F3, covalent FMN 100% (cofactor)
molecule,measurement,setting,value
Cc1cc2nc3c(=O)[nH]c(=O)nc-3n(C[C@H](O)[C@H](O)[C@H](O)COP(=O)(O)O)c2cc1C [FMN],SDS-PAGE and MS,miniSOG [1],SDS-PAGE and MS analyses revealed that both proteins were fully covalently flavinylated
same,absorbance of purified holoprotein; SDS-PAGE fluorescence; ESI-MS,PpSB1-LOV,the wild-type protein did not yield in-gel fluorescence as it contains a dissociable FMN
same,X-ray crystal structure 2.0 Å; MS,miniSOG [2],the introduced phosphoester bond between OG1 of Thr57 and the phosphate of FMN
B1,Km,steady-state kinetics; dissociable FMN,64 ± 11.5 µM
same,kcat,steady-state kinetics; dissociable FMN,32 ± 2.3 s⁻¹
same,kcat/Km,steady-state kinetics; dissociable FMN,500000 M⁻¹ s⁻¹
B2,Km,steady-state kinetics; [3],42 ± 6.6 µM
same,kcat,steady-state kinetics; [3],4.5 ± 0.2 s⁻¹
same,kcat/Km,steady-state kinetics; [3],110000 M⁻¹ s⁻¹
